In US7906477B2 (Genspera, Inc., priority 2002, dated 2011):
Square brackets hold non-standard residues; d marks the D form. Ends that are not written are not given here. Peptide text beside a SMILES is read from it. Tyr(3-NO2) = N[C@@H](Cc1ccc(O)c([N+](=O)[O-])c1)C(=O)O; 2Abz = Nc1ccccc1C(=O)O

Key:
[1] = biological target: sarcoplasmic reticulum (SR) and endoplasmic reticulum (ER) Ca^2+-ATPase (SERCA) pump; conditions: read-out: apparent dissociation constant for TG from the SERCA pump; cited from earlier work
Cathepsin D = Cathepsin D (Homo sapiens, UniProt P07339); test: hydrolysis by tumor-associated proteases: Cathepsin D; assay type: biochemical
Text: (§1) Due to their short length, the hK2 peptide substrates could potentially be substrates for other trypsin-like proteases. Although a rather specific protease substrate can be defined with 7 amino acids, there is a lack of higher order structural information by which natural protein substrates normally impose high specificity. Cancer progression is often correlated with increased protease activity (Koblinsli, J. E. et al. (2000) Clin. Chim. Acta 291:113-135). These activities could be potentially beneficial since they could broaden the scope of applications for protease activated prodrugs. To test the hypothesis that other tumor-associated proteases could activate the prodrug, a number of known proteases (table 3), implicated in cancer progression were selected to determine if our lead substrate, GKAFRRL (SEQ ID NO:30) could be efficiently hydrolyzed by any of these proteases. For this analysis, the trypsin-like serine proteases plasmin and urokinase and cathepsins B and D were selected. Hydrolysis of both the fluorescence quenched peptide substrate and the TG-prodrug was analyzed. […] Plasmin, therefore, could be a valid target for selective activation of the GKAFRR-L12ADT (SEQ ID NO:44) prodrug in other types of cancer where plasmin activation may play an important role.

Cathepsin B = Cathepsin B (Homo sapiens, UniProt P07858); test: hydrolysis by tumor-associated proteases: Cathepsin B; assay type: biochemical
Text: as §1

Plasmin = Plasmin (Homo sapiens, UniProt P00747); test: hydrolysis by tumor-associated proteases: Plasmin; assay type: biochemical
Text: as §1

hK2 [2] = biological target: T1, hK2 (Homo sapiens, UniProt P20151); test: hydrolysis in the protease panel: hK2; assay type: biochemical; conditions: enzyme 1 μg/ml, substrate 500 μM; 1 = approximately 0.1% digestion in 1 hour
T1 construct: made in house
Text: as §1

Urokinase = Urokinase (Homo sapiens, UniProt P00749); test: hydrolysis by tumor-associated proteases: Urokinase; assay type: biochemical
Text: as §1

hK2 [3] = biological target: T1, hK2; test: hK2 hydrolysis of prodrug and non-fluorescent peptide by HPLC; assay type: biochemical; conditions: HPLC analysis
Protocol: FIG. 4 depicts HPLC analysis of the hydrolysis of the hK2 prodrug Ac-GKAFRR-L12ADT (SEQ ID NO:41) by hK2 ([…]) incubated in 50 mM Tris, 0.1 M NaCl, pH 7.8 at room temperature for 24 hours. The mass of each peak was confirmed by MALDI-TOF mass spectrometric analysis.
Fluorescent substrates were analyzed by means of a fluorescence plate-reader (ex=355 nm, em=460 nm). acGKAFRRL-12ADT (SEQ ID NO:41) and acGKAFRRLG (SEQ ID NO:43) were analyzed by HPLC and quantified by HLPC integration.
This putative hK2 prodrug was incubated with enzymatically active hK2 (4 μg/ml) to determine extent of hydrolysis over time. […] In 25 min, 50% was hydrolyzed and after 1 hour, more than 80% of the starting prodrug was hydrolyzed. The ratio of the products RL-12ADT:L-12ADT was 1:1.8, as determined by HPLC integration.

[4] = plasma stability of acetylated versus non-acetylated peptide (plasma species not stated); assay type: in vitro ADME; conditions: plate-reader assay and analytical HPLC
Protocol: Mouse plasma was obtained from cardiac puncture of anesthetized mice prior to euthanization by CO2 overdose according to protocols approved by the Johns Hopkins Animal Care and Use Committee. Human plasma was obtained from discarded, pooled, and unlabeled clinical samples. Plasma was diluted to 50% in Tris buffer (50 mM Tris-HCl, 100 mM NaCl, pH 7.8). To this, test peptides/prodrugs were added to 250 or 500 μM final concentration. After the incubation period, one volume (200 μl) of acetonitrile was added to precipitate the protein fraction and the tube was centrifuged at 14,000 for 2 min. The supernatant was analyzed by C18-HPLC and the collected peaks were analyzed by MALDI-TOF as described above.
To determine whether merely the acetylation of the N-terminus of the hK2 prodrug contributed to its stability, an acetylated fluorescence-quenched peptide (ac-Y′GKAFRRLGK′; SEQ ID NO:18) was synthesized and compared its plasma stability with that of the non-acetylated peptide (Y′GKAFRRLGK′; SEQ ID NO:21). […] Analytical HPLC indicated the same result. […] The paradoxical stability of the hK2 prodrug (ac-GKAFRR-L12ADT; SEQ ID NO:41) compared to the peptide substrates may also be due to binding of the L12ADT moiety to plasma proteins that make it inaccessible to the plasma protease activity that is responsible for hydrolysis of unconjugated (and unbound) peptides.

[5] = enzyme 1 μg/ml, substrate 500 μM, 1 = approximately 0.1% digestion in 1 hour

Cathepsin D, sequence (P07339 65-412, species assumed): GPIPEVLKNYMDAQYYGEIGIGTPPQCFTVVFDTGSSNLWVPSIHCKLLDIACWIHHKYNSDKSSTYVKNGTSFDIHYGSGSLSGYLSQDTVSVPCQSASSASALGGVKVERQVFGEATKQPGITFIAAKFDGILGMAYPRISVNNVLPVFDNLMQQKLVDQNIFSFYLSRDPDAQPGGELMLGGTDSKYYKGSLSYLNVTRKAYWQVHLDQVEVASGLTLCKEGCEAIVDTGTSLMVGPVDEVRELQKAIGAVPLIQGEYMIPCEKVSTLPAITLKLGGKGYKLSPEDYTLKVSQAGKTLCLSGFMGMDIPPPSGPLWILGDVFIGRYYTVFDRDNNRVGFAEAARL
T1 sequence (P20151 25-261): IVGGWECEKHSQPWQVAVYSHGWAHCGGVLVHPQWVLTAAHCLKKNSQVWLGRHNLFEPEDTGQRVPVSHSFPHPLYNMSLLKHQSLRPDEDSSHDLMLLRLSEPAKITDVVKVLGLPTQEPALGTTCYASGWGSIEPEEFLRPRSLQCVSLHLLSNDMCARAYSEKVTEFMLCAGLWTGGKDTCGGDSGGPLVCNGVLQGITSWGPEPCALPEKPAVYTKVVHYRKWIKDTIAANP
Plasmin, sequence (P00747 581-810 limits assumed, species assumed): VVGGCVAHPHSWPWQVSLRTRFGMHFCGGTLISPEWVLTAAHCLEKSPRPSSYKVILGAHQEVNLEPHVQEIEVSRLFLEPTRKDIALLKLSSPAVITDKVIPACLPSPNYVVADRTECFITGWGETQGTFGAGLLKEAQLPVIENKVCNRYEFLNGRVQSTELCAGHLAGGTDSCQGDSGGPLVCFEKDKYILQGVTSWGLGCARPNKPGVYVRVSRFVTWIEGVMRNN
Plasmin, sequence (P00747 97-580 partner limits assumed, species assumed): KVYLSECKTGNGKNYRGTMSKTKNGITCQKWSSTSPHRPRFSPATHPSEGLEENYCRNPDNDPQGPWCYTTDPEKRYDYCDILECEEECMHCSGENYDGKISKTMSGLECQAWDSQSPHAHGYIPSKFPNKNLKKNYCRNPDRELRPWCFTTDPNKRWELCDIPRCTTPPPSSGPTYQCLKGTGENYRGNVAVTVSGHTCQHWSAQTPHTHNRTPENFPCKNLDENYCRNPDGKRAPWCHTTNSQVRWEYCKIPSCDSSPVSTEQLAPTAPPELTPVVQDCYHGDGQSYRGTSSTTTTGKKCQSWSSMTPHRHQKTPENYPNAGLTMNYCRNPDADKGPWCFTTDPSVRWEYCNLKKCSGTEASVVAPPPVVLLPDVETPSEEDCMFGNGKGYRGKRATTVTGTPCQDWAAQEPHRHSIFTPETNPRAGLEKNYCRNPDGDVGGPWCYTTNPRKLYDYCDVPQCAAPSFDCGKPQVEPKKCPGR

For `C/C=C(/C)C(=O)O[C@H]1C(C)=C2[C@H]([C@@H]1OC(=O)CCCCCCC)[C@@](C)(OC(C)=O)C[C@H](OC(=O)CCC)[C@@]1(O)[C@H]2OC(=O)[C@@]1(C)O` [TG, Thapsigargin], which Kd [1] is on record?
The Kd was no more than 2.2 pM.

Which results are given for “Abz-GKAFRRLY′: fluorescence quenched peptide substrate with the lead sequence GKAFRRL ([2Abz]GKAFRRL[Tyr(3-NO2)])”?
hydrolysis following incubation with Cathepsin D (in words) (Cathepsin D): No appreciable hydrolysis; Relative hydrolysis rate, Cathepsin D (Cathepsin D; [5]): 1; hydrolysis following incubation with Cathepsin B (in words) (Cathepsin B): No appreciable hydrolysis; Relative hydrolysis rate, Cathepsin B (Cathepsin B; [5]): 1; Relative hydrolysis rate, Plasmin (Plasmin; [5]): 36; fold slower rate of hydrolysis by plasmin than by hK2 (Plasmin; fluorescence quenched peptide substrate): more than 10 fold; Relative hydrolysis rate, hK2 (hK2 [2]): 353; activity of Urokinase on the substrate (in words) (Urokinase): low activity; Relative hydrolysis rate, Urokinase (Urokinase; [5]): 17

With “ac-GKAFRRLG: acetylated non-fluorescence quenched peptide (Ac-GKAFRRLG)” as the compound, how does the “hydrolysis by hK2 (in words)” value (hK2 [3]) read?
The value was “rapidly hydrolyzed by hK2”.

For `CC(=O)N[C@@H](Cc1ccc(O)c([N+](=O)[O-])c1)C(=O)NCC(=O)N[C@@H](CCCCN)C(=O)N[C@@H](C)C(=O)N[C@@H](Cc1ccccc1)C(=O)N[C@@H](CCCNC(=N)N)C(=O)N[C@@H](CCCNC(=N)N)C(=O)N[C@@H](CC(C)C)C(=O)NCC(=O)N[C@@H](CCCCNC(=O)c1ccccc1N)C(=O)O` [ac-Y′GKAFRRLGK′] (Ac-[Tyr(3-NO2)]GKAFRRLGK(2Abz)-OH), which “plasma hydrolysis compared with the non-acetylated peptide (in words)” value [4] is on record?
Its value is “completely identical”.
